Measured values taken from patent publication US20200377590A1 (Hoffmann-La Roche, published 2020).
Residue numbers refer to the chain shown, from its start.

B1: CD81K04 HC GG-02-hVH_1_69 / LC GG-02-hVK_4_1 (antibody, V domains shown)
VH: QVQLVQSGAEVKKPGSSVKVSCKASGYTFSSSWMNWVRQAPGQGLEWMGRIYSGDGDAIYNQKFQGRVTITADESTSTAYMELSSLRSEDTAVYYCAREGKTGDLLLRSWGQGTLVTVSS
VL: DIVMTQSPDSLAVSLGERATINCKSSKSVSTSIYSYMHWYQQKPGQPPKLLIYYASYRESGVPDRFSGSGSGTDFTLTISSLQAEDVAVYYCQHSREFPFTFGQGTKLEIK
notes: human constant region
B2: CD81K04 HC GG-04-hVH_1_69 / LC GG-02-hVK_4_1 (antibody, V domains shown)
VH: B1 VH with V68A
VL: B1 VL
notes: human constant region
B3: CD81K04 HC GG-04-hVH_1_69 / LC JA_GG-08-hVK_4_1 (antibody, V domains shown)
VH: B1 VH with V68A
VL: B1 VL with Y53K, R58L, Q93E
notes: human constant region
B4: CD81K04 HC GG-03-hVH_1_69 / LC GG-02-hVK_4_1 (antibody, V domains shown)
VH: B1 VH with N61A
VL: B1 VL
notes: human constant region
B5: CD81K04 HC GG-02-hVH_1_69 / LC JA_GG-09-hVK_4_1 (antibody, V domains shown)
VH: B1 VH
VL: B1 VL with Y53K, Y57T, Q93E
notes: human constant region
B6: CD81K04 HC GG-03-hVH_1_69 / LC JA_GG-08-hVK_4_1 (antibody, V domains shown)
VH: B1 VH with N61A
VL: B1 VL with Y53K, R58L, Q93E
notes: human constant region
B7: CD81K04 HC GG-03-hVH_1_69 / LC JA_GG-10-hVK_4_1 (antibody, V domains shown)
VH: B1 VH with N61A
VL: B1 VL with K24R, S25A, Y53K, R58L, Q93E
notes: human constant region
B8: CD81K04 HC GG-03-hVH_1_69 / LC GG-03-hVK_4_1 (antibody, V domains shown)
VH: B1 VH with N61A
VL: B1 VL with M37L, H38A
notes: human constant region
B9: CD81K04 HC GG-02-hVH_1_69 / LC JA_GG-10-hVK_4_1 (antibody, V domains shown)
VH: B1 VH
VL: B1 VL with K24R, S25A, Y53K, R58L, Q93E
notes: human constant region
B10: CD81K04 HC GG-03-hVH_1_69 / LC JA_GG-09-hVK_4_1 (antibody, V domains shown)
VH: B1 VH with N61A
VL: B1 VL with Y53K, Y57T, Q93E
notes: human constant region
B11: CD81K04 HC GG-04-hVH_1_69 / LC GG-04-hVK_4_1 (antibody, V domains shown)
VH: B1 VH with V68A
VL: B1 VL with M37L, H38A, Y57T, F100Y
notes: human constant region
B12: CD81K04 HC GG-04-hVH_1_69 / LC JA_GG-10-hVK_4_1 (antibody, V domains shown)
VH: B1 VH with V68A
VL: B1 VL with K24R, S25A, Y53K, R58L, Q93E
notes: human constant region
B13: CD81K04 HC GG-02-hVH_1_69 / LC GG-04-hVK_4_1 (antibody, V domains shown)
VH: B1 VH
VL: B1 VL with M37L, H38A, Y57T, F100Y
notes: human constant region
B14: CD81K04 HC GG-02-hVH_1_69 / LC GG-03-hVK_4_1 (antibody, V domains shown)
VH: B1 VH
VL: B1 VL with M37L, H38A
notes: human constant region
B15: CD81K04 HC GG-04-hVH_1_69 / LC GG-03-hVK_4_1 (antibody, V domains shown)
VH: B1 VH with V68A
VL: B1 VL with M37L, H38A
notes: human constant region
B16: CD81K04 HC GG-02-hVH_1_69 / LC JA_GG-08-hVK_4_1 (antibody, V domains shown)
VH: B1 VH
VL: B1 VL with Y53K, R58L, Q93E
notes: human constant region
B17: CD81K04 HC GG-04-hVH_1_69 / LC JA_GG-09-hVK_4_1 (antibody, V domains shown)
VH: B1 VH with V68A
VL: B1 VL with Y53K, Y57T, Q93E
notes: human constant region
B18: CD81K04 HC GG-03-hVH_1_69 / LC GG-04-hVK_4_1 (antibody, V domains shown)
VH: B1 VH with N61A
VL: B1 VL with M37L, H38A, Y57T, F100Y
notes: human constant region

target: T1, CD81 (UniProt P60033 1-236, limits assumed); assay: cell ELISA;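 note: antibody binding to HuH7 cells expressing CD81 versus a CD81-negative HuH7 control line, bound antibody detected by secondary reagent, absorbance at 450 nm with 620 nm reference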
T1 construct: whole, on cells; also called CD81 receptor
T1 sequence (looked up): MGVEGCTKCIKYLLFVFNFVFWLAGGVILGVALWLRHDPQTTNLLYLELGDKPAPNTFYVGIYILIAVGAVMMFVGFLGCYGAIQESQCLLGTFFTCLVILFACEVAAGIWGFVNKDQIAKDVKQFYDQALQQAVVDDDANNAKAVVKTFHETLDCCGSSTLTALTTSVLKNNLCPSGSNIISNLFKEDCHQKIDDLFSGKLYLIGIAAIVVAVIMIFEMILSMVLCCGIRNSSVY
Procedure: For the binding cell ELISA assay, HuH7-Rluc-H3 (positive cell line expressing CD81) and HuH7-Rluc-L1 (negative control cell line) were propagated in F-12 DMEM medium with 10% FCS at 37° C. and 5% CO₂. On day 1, the cells were trypsinized at approximately 90% confluence and resuspended at 4×10⁵ cells/mL. […] On day 2, the antibody samples to be tested were prepared in a separate polypropylene round bottom plate with a twofold desired concentration with a final volume of 120 μl. All of the assay samples were diluted in cell culture medium. […] After fixation, each well was washed 3 times with 200 μL PBS/0.05% Tween. The secondary incubation step for detection of bound anti-CD81 antibodies was performed for 2 h at room temperature on a reciprocal shaker. […] Each well was washed three times with 200 μL PBS/0.05% Tween to remove unbound antibodies. […] The absorbance was read using the ELISA Tecan reader at 450 nm with 620 nm reference wavelength.

ELISA data | Binder
0.22 | B1
0.27 | B2
0.773 | B3
0.44 | B4
0.783 | B5
0.815 | B6
0.691 | B7
0.165 | B8
0.643 | B9
0.832 | B10
0.141 | B11
0.762 | B12
0.075 | B13
0.142 | B14
0.162 | B15
0.792 | B16
0.918 | B17
0.07 | B18
